Target: Recombinant human latent TGF-β1 (small latent complex, SLC: LAP with mature TGF-β1) (human) (UniProt P01137)
Assay: SPR; Biacore 3000; LAP or latent TGF-β1 amine-coupled to a CM5 chip (1000 RU); PSG9-Fc injected at 6, 4, 2, 1, 0.5 and 0.25 μM, 10 μl/min, 25°C, HBS-EP (0.01 M HEPES pH 7.4, 0.15 M NaCl, 3 mM EDTA, 0.005% P20); 1:1 Langmuir model

Chain of UniProt P01137 (P01137 whole entry, one chain of several): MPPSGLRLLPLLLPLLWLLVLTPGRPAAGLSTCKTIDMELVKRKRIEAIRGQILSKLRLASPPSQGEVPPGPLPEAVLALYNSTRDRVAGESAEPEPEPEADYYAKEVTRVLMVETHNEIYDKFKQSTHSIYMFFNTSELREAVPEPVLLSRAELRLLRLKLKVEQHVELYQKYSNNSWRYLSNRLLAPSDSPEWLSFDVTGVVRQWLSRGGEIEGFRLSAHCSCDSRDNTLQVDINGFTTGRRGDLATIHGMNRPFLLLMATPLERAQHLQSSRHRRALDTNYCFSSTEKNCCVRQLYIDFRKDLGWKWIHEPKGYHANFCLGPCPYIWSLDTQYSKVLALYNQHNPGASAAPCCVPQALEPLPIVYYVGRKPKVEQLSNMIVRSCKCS

Kd: 560 nM | koff: 0.00065 s⁻¹ | kon: 1150 M⁻¹ s⁻¹
Substance: PSG9-Fc (recombinant human pregnancy-specific glycoprotein 9 with the N, A1, A2 and B2 domains, fused to the Fc of human IgG1) (from UniProt Q00887-1 35-426) (Fc fusion)

Source: PMC4936685
